As usually defined, the koff is the first-order rate constant of dissociation. A higher koff goes with fast dissociation. The Kd is the equilibrium constant for the complex coming apart. A high value points to a looser complex.

Assay [1] concerns the target T1, collagen-binding, serum albumin-fused IL-4 variant (CBD-SA-IL-4) (UniProt P04275). Kind of assay: SPR. In general terms: In SPR one partner is held on a chip, and binding of the other changes the refractive index at the surface.
The target of assay [2] is T1, collagen-binding, serum albumin-fused …. Kind of assay: ELISA.

B1: collagen III (natural protein)
chain: QYDSYDVKSGVAVGGLAGYPGPAGPPGPPGPPGTSGHPGSPGSPGYQGPPGEPGQAGPSGPPGPPGAIGPSGPAGKDGESGRPGRPGERGLPGPPGIKGPAGIPGFPGMKGHRGFDGRNGEKGETGAPGLKGENGLPGENGAPGPMGPRGAPGERGRPGLPGAAGARGNDGARGSDGQPGPPGPPGTAGFPGSPGAKGEVGPAGSPGSNGAPGQRGEPGPQGHAGAQGPPGPPGINGSPGGKGEMGPAGIPGAPGLMGARGPPGPAGANGAPGLRGGAGEPGKNGAKGEPGPRGERGEAGIPGVPGAKGEDGKDGSPGEPGANGLPGAAGERGAPGFRGPAGPNGIPGEKGPAGERGAPGPAGPRGAAGEPGRDGVPGGPGMRGMPGSPGGPGSDGKPGPPGSQGESGRPGPPGPSGPRGQPGVMGFPGPKGNDGAPGKNGERGGPGGPGPQGPPGKNGETGPQGPPGPTGPGGDKGDTGPPGPQGLQGLPGTGGPPGENGKPGEPGPKGDAGAPGAPGGKGDAGAPGERGPPGLAGAPGLRGGAGPPGPEGGKGAAGPPGPPGAAGTPGLQGMPGERGGLGSPGPKGDKGEPGGPGADGVPGKDGPRGPTGPIGPPGPAGQPGDKGEGGAPGLPGIAGPRGSPGERGETGPPGPAGFPGAPGQNGEPGGKGERGAPGEKGEGGPPGVAGPPGGSGPAGPPGPQGVKGERGSPGGPGAAGFPGARGLPGPPGSNGNPGPPGPSGSPGKDGPPGPAGNTGAPGSPGVSGPKGDAGQPGEKGSPGAQGPPGAPGPLGIAGITGARGLAGPPGMPGPRGSPGPQGVKGESGKPGANGLSGERGPPGPQGLPGLAGTAGEPGRDGNPGSDGLPGRDGSPGGKGDRGENGSPGAPGAPGHPGPPGPVGPAGKSGDRGESGPAGPAGAPGPAGSRGAPGPQGPRGDKGETGERGAAGIKGHRGFPGNPGAPGSPGPAGQQGAIGSPGPAGPRGPVGPSGPPGKDGTSGHPGPIGPPGPRGNRGERGSEGSPGHPGQPGPPGPPGAPGPCCGGVGAAAIAGIGGEKAGGFAPYYG
With B1, the off-rate (koff) in assay [1] was 0.0056 s⁻¹.

B2: IL-4Rα-Fc (Fc fusion)
chain: IKVLGEPTCFSDYIRTSTCEWFLDSAVDCSSQLCLHYRLMFFEFSENLTCIPRNSASTVCVCHMEMNRPVQSDRYQMELWAEHRQLWQGSFSPSGNVKPLAPDNLTLHTNVSDEWLLTWNNLYPSNNLLYKDLISMVNISREDNPAEFIVYNVTYKEPRLSFPINILMSGVYYTARVRVRSQILTGTWSEWSPSITWYNHFQLPLIQR
Take B2: the equilibrium dissociation constant (Kd) in assay [2] stood at 0.118 nM. This counts as sub-nanomolar.
